In patent US20150037340A1 (PEIRRE FABRE MEDICAMENT, published 2015):
One block for each molecule: values may come before it.

How the values were obtained:
[1] = target: human protein Axl (cellular form on the cell surface) (human) (UniProt P30530); test: cell-based or functional assay
[2] = target: human protein Axl (cellular form on the cell surface) (human) (UniProt P30530); test: flow cytometry, 9G4 labelling of untreated (No Ab) SN12C cells
[3] = target: human protein Axl (cellular form on the cell surface) (human) (UniProt P30530); test: flow cytometry, 9G4 labelling of SN12C cells treated 24 h with 9G4
[4] = target: human protein Axl (cellular form on the cell surface) (human) (UniProt P30530); test: Qifikit quantitative flow cytometry on NCI-H226 cells
[5] = target: human protein Axl (cellular form on the cell surface) (human) (UniProt P30530); test: flow cytometry, MAB154 labelling of untreated (No Ab) SN12C cells
[6] = target: human protein Axl (cellular form on the cell surface) (human) (UniProt P30530); test: Qifikit quantitative flow cytometry on NCI-H125 cells
[7] = target: human protein Axl (cellular form on the cell surface) (human) (UniProt P30530); test: Qifikit quantitative flow cytometry on A431 cells
[8] = target: human protein Axl (cellular form on the cell surface) (human) (UniProt P30530); test: Qifikit quantitative flow cytometry on MCF7 cells
[9] = target: human protein Axl (cellular form on the cell surface) (human) (UniProt P30530); test: Qifikit quantitative flow cytometry on A172 cells
[10] = target: human protein Axl (cellular form on the cell surface) (human) (UniProt P30530); test: Qifikit quantitative flow cytometry on Calu-1 cells
[11] = target: human protein Axl (cellular form on the cell surface) (human) (UniProt P30530); test: Qifikit quantitative flow cytometry on MDA-MB-435S cells
[12] = target: human protein Axl (cellular form on the cell surface) (human) (UniProt P30530); test: Qifikit quantitative flow cytometry on SN12C cells
[13] = target: human protein Axl (cellular form on the cell surface) (human) (UniProt P30530); test: Qifikit quantitative flow cytometry on PC3 cells
[14] = target: human protein Axl (cellular form on the cell surface) (human) (UniProt P30530); test: Qifikit quantitative flow cytometry on Panc1 cells
[15] = target: human protein Axl (cellular form on the cell surface) (human) (UniProt P30530); test: Qifikit quantitative flow cytometry on MDA-MB-231 cells
[16] = target: human protein Axl (cellular form on the cell surface) (human) (UniProt P30530); test: Qifikit quantitative flow cytometry on DU-145 cells
[17] = target: T1, human protein Axl (cellular form on the cell surface) (human, UniProt P30530 26-894); test: flow cytometry on SN12C cells, anti-human IgG Alexa488; table under the graph, unit from the axis Log [M]
T1 construct: also called Axl receptor; membrane Axl receptor
T1 sequence: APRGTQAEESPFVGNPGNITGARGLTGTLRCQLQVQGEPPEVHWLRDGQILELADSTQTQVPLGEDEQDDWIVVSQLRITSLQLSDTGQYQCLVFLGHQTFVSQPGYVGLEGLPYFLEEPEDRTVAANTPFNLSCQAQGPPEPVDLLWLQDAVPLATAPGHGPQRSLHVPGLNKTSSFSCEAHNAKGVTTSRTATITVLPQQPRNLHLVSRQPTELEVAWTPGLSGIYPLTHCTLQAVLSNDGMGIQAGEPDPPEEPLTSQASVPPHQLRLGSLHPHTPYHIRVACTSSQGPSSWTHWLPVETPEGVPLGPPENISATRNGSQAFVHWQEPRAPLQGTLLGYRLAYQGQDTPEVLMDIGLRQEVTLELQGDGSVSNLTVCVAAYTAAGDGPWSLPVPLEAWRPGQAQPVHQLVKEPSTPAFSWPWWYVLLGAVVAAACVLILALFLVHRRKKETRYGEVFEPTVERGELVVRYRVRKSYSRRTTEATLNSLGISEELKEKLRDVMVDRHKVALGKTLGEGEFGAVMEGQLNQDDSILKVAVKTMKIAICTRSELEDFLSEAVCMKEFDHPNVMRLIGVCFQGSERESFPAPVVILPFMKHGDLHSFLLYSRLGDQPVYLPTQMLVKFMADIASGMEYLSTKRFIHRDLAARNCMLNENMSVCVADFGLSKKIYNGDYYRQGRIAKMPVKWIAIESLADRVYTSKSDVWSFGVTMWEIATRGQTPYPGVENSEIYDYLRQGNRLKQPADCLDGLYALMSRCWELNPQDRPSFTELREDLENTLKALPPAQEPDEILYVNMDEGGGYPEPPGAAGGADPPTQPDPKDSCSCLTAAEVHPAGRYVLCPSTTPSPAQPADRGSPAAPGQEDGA
Method: Cells were detached using trypsin and cell concentration was adjusted at 1×10⁶ cells/ml in FACS buffer. A volume of 100 μL of cell suspension was incubated with increasing concentrations of either isotype controls or anti-Axl antibodies for 20 min. at 4° C. Cells were then washed three times with FACS buffer and incubated for 20 min. more using either anti-mouse IgG Alexa488 secondary antibody or anti-human IgG Alexa488 secondary antibody at 4° C. in the dark. Cells were washed three times with FACS buffer and resuspended with 100 μl of FACS buffer before adding propidium iodide.

% remaining Axl, SN12C cells [1]: 117%
Δ (MFI No Ab 24 h - MFI Ab 24 h), SN12C cells [1]: -2 MFI
MFI at T24 h [2]: 11 MFI
MFI at T24 h [3]: 13 MFI
Molecule: 9G4 murine IgG1 isotype control antibody

ABC (Qifikit) [4]: 32100 ABC
MFI at T24 h [5]: 950 MFI
ABC (Qifikit) [6]: 5540 ABC
ABC (Qifikit) [7]: 3950 ABC
ABC (Qifikit) [8]: 71 ABC
ABC (Qifikit) [9]: 52400 ABC
ABC (Qifikit) [10]: > 100000 ABC
ABC (Qifikit) [11]: 17800 ABC
ABC (Qifikit) [12]: > 100000 ABC
antigen binding capacity (ABC) [12]: > 100000 ABC
ABC (Qifikit) [13]: 8420 ABC
ABC (Qifikit) [14]: 36800 ABC
ABC (Qifikit) [15]: 61200 ABC
ABC (Qifikit) [16]: 55300 ABC
Molecule: MAB154 commercial anti-Axl antibody (R and D Systems, ref MAB154)

EC50 [17]: 1.81 nM
B1: c1613F12 (chimeric 1613F12) (antibody, V domains shown)
VH: EVHLQQSGAELVKPGASVKLSCTASGFNIRDTYIHWVKQRPEQGLEWIGRLDPANGHTKYGPNFQGRATMTSDTSSNTAYLQLSSLTSEDTAVYYCARGAYYYGSSGLFYFDYWGQGTTLSVSS
VL: DVQITQSPSYLATSPGETITINCRASKSISKYLAWYQEKPGKTNKLLIYSGSTLQSGVPSRFSGSGSGTDFTLTISSLEPEDFAMYFCQQHHEYPLTFGAGTELELK
notes: Murine variable domains with human constant regions; also called chimeric form of the 1613F12
